Source: paper PMC10805922, “Exosomal secreted SCIMP regulates communication between macrophages and neutrophils in pneumonia” (Nature Communications, 2024)
Where no end group is shown, it is not given here.

Key:
[1] = target: T1, human formyl peptide receptor 1 (FPR1) (human, UniProt P21462 1-350); experiment: other fluorescence titration; competitive binding assay; labelled SCIMP^N mixed with serially diluted fMLF (5-1280 nM) and a fixed amount of FPR-containing HEK293 membrane debris, fluorescence at 512 nm measured for 4 min
T1 construct: formyl peptide receptor 1, human, overexpressed in HEK293 cells; also called FPR1-HEK293; source: HEK293, transiently overexpressed
T1 sequence (looked up): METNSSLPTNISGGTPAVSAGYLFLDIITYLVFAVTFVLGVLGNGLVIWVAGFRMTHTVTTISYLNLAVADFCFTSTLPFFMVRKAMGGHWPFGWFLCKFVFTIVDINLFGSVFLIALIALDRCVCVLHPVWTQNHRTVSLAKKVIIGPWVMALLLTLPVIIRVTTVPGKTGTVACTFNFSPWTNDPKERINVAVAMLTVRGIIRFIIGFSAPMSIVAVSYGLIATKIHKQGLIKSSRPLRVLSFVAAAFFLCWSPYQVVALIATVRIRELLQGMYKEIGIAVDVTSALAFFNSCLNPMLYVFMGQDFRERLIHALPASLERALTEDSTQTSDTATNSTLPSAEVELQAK

[2] = target: T2, human formyl peptide receptor 2 (FPR2) (human, UniProt P25090 1-351); experiment: as above
T2 construct: formyl peptide receptor 2, human, overexpressed in HEK293 cells; also called FPR2-HEK293; source: HEK293, transiently overexpressed
T2 sequence (looked up): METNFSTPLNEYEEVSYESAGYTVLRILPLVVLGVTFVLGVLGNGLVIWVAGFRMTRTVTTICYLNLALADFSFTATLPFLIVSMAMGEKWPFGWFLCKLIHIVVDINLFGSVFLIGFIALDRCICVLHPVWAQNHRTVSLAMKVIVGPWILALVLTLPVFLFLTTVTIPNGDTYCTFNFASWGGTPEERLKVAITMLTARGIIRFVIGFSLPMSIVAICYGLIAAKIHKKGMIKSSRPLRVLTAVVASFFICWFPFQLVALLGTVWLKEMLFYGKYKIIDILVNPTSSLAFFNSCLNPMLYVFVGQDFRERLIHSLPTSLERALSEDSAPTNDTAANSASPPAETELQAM

murine FPR1 [3] = target: T3, murine FPR1 (murine, UniProt P33766 1-364); experiment: as above
T3 construct: formyl peptide receptor 1, mouse, overexpressed in HEK293 cells; also called murine formyl peptide receptor 1; source: HEK293 overexpressing FPRs, membrane debris
T3 sequence (looked up): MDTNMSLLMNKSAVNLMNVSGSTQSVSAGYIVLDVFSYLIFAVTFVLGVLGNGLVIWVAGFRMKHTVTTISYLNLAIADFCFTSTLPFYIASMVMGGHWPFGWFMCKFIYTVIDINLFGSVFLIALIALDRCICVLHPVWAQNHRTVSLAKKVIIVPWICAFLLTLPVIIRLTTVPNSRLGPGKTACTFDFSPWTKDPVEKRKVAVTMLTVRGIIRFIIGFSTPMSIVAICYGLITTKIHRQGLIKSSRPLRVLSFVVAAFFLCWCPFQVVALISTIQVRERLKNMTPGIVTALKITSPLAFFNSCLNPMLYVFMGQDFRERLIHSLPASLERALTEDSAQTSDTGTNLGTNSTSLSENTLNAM

murine FPR2 [4] = target: T4, murine FPR2 (murine, UniProt O88536 1-351); experiment: as above
T4 construct: formyl peptide receptor 2, mouse, overexpressed in HEK293 cells; also called murine formyl peptide receptor 2; source: HEK293 overexpressing FPRs, membrane debris
T4 sequence (looked up): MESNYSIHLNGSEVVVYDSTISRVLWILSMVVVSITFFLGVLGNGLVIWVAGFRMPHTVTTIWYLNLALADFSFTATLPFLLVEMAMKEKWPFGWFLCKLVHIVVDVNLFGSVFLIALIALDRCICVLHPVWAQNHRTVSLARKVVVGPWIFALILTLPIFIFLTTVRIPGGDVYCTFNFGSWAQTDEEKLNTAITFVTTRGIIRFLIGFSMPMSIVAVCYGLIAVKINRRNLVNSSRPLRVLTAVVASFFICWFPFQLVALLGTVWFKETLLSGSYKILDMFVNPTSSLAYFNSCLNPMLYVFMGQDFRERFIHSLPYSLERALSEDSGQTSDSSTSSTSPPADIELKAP

[5] = target: T1, human formyl peptide receptor 1 (FPR1); experiment: other fluorescence titration; saturation binding assay; BODIPY FL iodoacetamide-labelled SCIMP^N with membrane component (debris) of HEK293 cells overexpressing FPRs, black/clear bottom 96-well plate, quenching of the label on binding, excited at 370 nm, detected at 512 nm, measured for 4 min; details: one partner purified
[6] = target: T2, human formyl peptide receptor 2 (FPR2); experiment: as above; details: one partner purified
murine FPR1 [7] = target: T3, murine FPR1; experiment: as above; details: one partner purified
murine FPR2 [8] = target: T4, murine FPR2; experiment: as above; details: one partner purified

Q: Which IC50 [1] does the source give for N-Formyl-Met-Leu-Phe (fMLF) (peptide) here?
A: 55.2 nM

Q: What about the IC50 [2] of the same molecule?
A: 38.4 nM

Q: What about the IC50 (murine FPR1 [3]) of the same molecule?
A: 148 nM

Q: What about the IC50 (murine FPR2 [4]) of the same molecule?
A: 43.1 nM

B1: human SCIMP N-terminus peptide (SCIMP^N, 18aa) (peptide)
peptide: MDTFTVQDSTAMSWWRNN
modifications: also: labeled with BODIPY FL iodoacetamide, site not given here
notes: the 18 amino acids before the transmembrane domain at the N-terminus (extramembrane fragment); also called SCIMP N-terminal peptides; source: synthetic peptide (Chinese-Peptide-Company.Inc), purity more than 95%
Q: Which results are given for B1?
A: Kd [5]: 3.8 nM; Kd [6]: 3.5 nM

B2: murine SCIMP N-terminus peptide (murine SCIMP^N) (peptide)
peptide: MSWWRDNF
modifications: also: labeled with BODIPY FL iodoacetamide, site not given here
notes: N-terminus peptide; source: synthetic peptide (chemically synthesized and purified; Chinese-Peptide-Company.Inc), purity more than 95%
Q: Which results are given for B2?
A: Kd (murine FPR1 [7]): 1.08 nM; Kd (murine FPR2 [8]): 0.54 nM
